Data from paper PMC10140475.

Assays:
Experiment in all cases: SPR
[1] = target: CH31 (germline); conditions: antibody concentrations 0.98 nM-1,000 nM; parent: N/A
[2] = target: CH31 (mature); conditions: antibody concentrations 0.98 nM-1,000 nM; parent: <1
[3] = target: VRC01 (germline); conditions: antibody concentrations 0.98 nM-1,000 nM; parent: N/A
[4] = target: VRC01 (mature); conditions: antibody concentrations 0.98 nM-1,000 nM; parent: <10
[5] = target: eOD-GT8

| Substance | Kd [1] [nM] | Kd [2] [nM] | Kd [3] [nM] | Kd [4] [nM] | Kd [5] [nM] |
| --- | --- | --- | --- | --- | --- |
| BG505 SOSIP trimer (fully glycosylated) (from UniProt Q2N0S6) | 4000 | 0.14 | 670 | < 0.1 | – |
| gl-CH31 | – | – | – | – | 11900 |
